Experimental data from paper PMC4432866 (Nature communications, 2014).
Read-outs that look alike come from different tables or passages of the source. Ends that are not written are not given here.

B1: talin-F3 (His-tagged, pull-down) (domain or fragment, mouse, UniProt P26039 309-405, looked up)
chain: GVSFFLVKEKMKGKNKLVPRLLGITKECVMRVDEKTKEVIQEWSLTNIKRWAASPKSFTLDFGDYQDGYYSVQTTEGEQIAQLIAGYIDIILKKKKS

Assays:
[1] = target: talin-R9 (pull-down competitor) (mouse, UniProt P26039 1654-1848); experiment: pull-down
talin-F2F3 [2] = target: T1, talin-F2F3 (mouse, UniProt P26039 206-405); experiment: NMR titration
talin-F2F3 [3] = target: T1, talin-F2F3; experiment: NMR titration; remark: listed apart in the source
talin-F3 = talin-F3 (mouse, UniProt P26039 309-405); experiment: NMR titration
[4] = target: B1; experiment: pull-down

B1: binds [1].

B2: talin-R9 (domain or fragment, mouse, UniProt P26039 1654-1848, looked up)
chain: KAPGQLECETAIAALNSCLRDLDQASLAAVSQQLAPREGISQEALHTQMLTAVQEISHLIEPLASAARAEASQLGHKVSQMAQYFEPLTLAAVGAASKTLSHPQQMALLDQTKTLAESALQLLYTAKEAGGNPKQAAHTQEALEEAVQMMTEAVEDLTTTLNEAASAAGVVGGMVDSITQAINQLDEGPMGDPEG
B2: binds (talin-F2F3 [2]).

B3: RIAM-N (peptide, UniProt Q7Z5R6 7-30, looked up)
peptide: DIDQMFSTLLGEMDLLTQSLGVDT
B3: binds (talin-F2F3 [3]); binds (talin-F3).

B4: integrin β3 CT (716–762) L717K/L718K (peptide, UniProt P05106 742-788, looked up)
chain: KKKITIHDRKEFAKFEEERARAKWDTANNPLYKEATSTFTNITYRGT
B4: binds (talin-F3).

B5: integrin β3 CT (716–762) L717K/L718K (His-tagged, pull-down) (peptide, UniProt P05106 742-788, looked up)
chain: KKKITIHDRKEFAKFEEERARAKWDTANNPLYKEATSTFTNITYRGT
modifications: also: His-tagged
B5: binds [4].
